Results reported in PMC8466245.

Assays:
[1] = molecular target: Glycymeris yessoensis lectin (GYL) (Glycymeris yessoensis); test: MALDI-TOF mass spectrometry; Ultraflex III MALDI-TOF/TOF; singly charged ions of the subunit and of the subunit dimer
[2] = molecular target: Glycymeris yessoensis lectin (GYL) (Glycymeris yessoensis); test: SDS-PAGE without and with DTT; 15% separation gel, in the absence and presence of 10 mM DTT; disulfide-linked (covalent) dimer to subunits

stoichiometry N [1]: 2 | stoichiometry N [2]: 2
Substance: Glycymeris yessoensis lectin (GYL) (natural protein)
